Laboratory results published in patent publication US20050009067A1, “Expression profile of pancreatic cancer” (priority 2003, published 2005).

Experiments:
NIH3T3 cells [1] = assay: NIH3T3 cell survival after apoptotic insults (5-FU, anoikis on polyHEMA); format: cell-based
Procedure: Apoptosis was induced in NIH3T3 cells either by prevention of cell adhesion to a solid substrate (anoikis) or by use of 5-flurouracil. To prevent cell adhesion, 6 well plates were covered (3 ml/well) with a solution of polyhydroxyethylmethacrylate (polyHEMA; Sigma-Aldrich) dissolved at 10 mg/ml in ethanol. Plates were kept at 37° C. for 5 days to evaporate solvent completely. Cells were resuspended at 5×10^4 cells/ml and were cultured (1 ml/well) in DMEM medium containing 10% fetal calf serum for different times on polyHEMA coated dishes at 37° C. and 5% CO2. Subsequently, cells were subjected to cell viability studies using MTS or recovered and analyzed for caspase 3 activity.

S100 proteins = conditions: Okada et al. 2002; cited from earlier work
[2] = target: RAGE (endogenous, of NIH3T3 cells) (UniProt Q62151); assay: cell-based or functional assay
Erk 1 & 2 = Erk 1 & 2 phosphorylation in NIH3T3 cells (western blot); format: cell-based
Procedure: Western blot analysis was utilized for the detection of S100P, RAGE, as well as activated Erks and caspase 3 by minor modifications of previously published methods. Cell lysates were prepared and separated by SDS polyacrylimide gel electrophoresis and transferred to nitrocellulose. Membranes were blocked by overnight incubation at 4° C. in 5% milk solution. S100P was detected usingmonoclonal antibodies (Transduction Laboratories, San Diego, Calif.) by incubating the membrane overnight at 4° C. in antibody diluted 1:100 in 5% milk solution. RAGE was detected using goat polyclonal antibodies (Santa Cruz, Santa Cruz, Calif.) by incubating the transferred membrane in for one hour at room temperature with antibody diluted 1:100 in 5% milk solution. Caspase 3 activation was estimated by detection of pro-caspase 3 and active caspase 3 fragments using rabbit polyclonal antibodies against full length caspase 3 (Santacruz Biotech, Calif.) by incubating the membrane at 4° C. for overnight with antibody diluted 1:100 in 5% milk solution. Erk activation was estimated by detection of phosphorylated forms of Erk 1 and 2 using phospho-p44/42 MAP kinase (Thr202/Tyr204) antibody (Cell Signaling, Beverly, Mass.) and, as a loading control after striping, a rabbit polyclonal antibody for total Erk 1 & 2 (Santa Cruz, Santa Cruz, Calif.) by incubating the membrane at 4° C. overnight with antibody diluted 1:100 in 5% milk solution. Second antibody anti-mouse, anti-rabbit, or anti-goat IgG+HRP was incubated for one hour at room temperature and the signal was detected by ECL detection system (Amersham) as per manufacturer protocol.

NF-κB = NF-κB electrophoretic mobility shift assay in NIH3T3 cells; format: cell-based
Procedure: Nuclear extracts were prepared and used for electrophoretic mobility shift assays (EMSAs) as previously described (Han et al., Am. J. Physiol. 277:C74 [1999]). For NF-κB DNA binding the reaction was started by addition of 10,000 cpm of the 22-base pair oligonucleotide 5′-AGTTGAGGGGACTTTCCCAGGC-3′ (SEQ ID NO:7) containing the NF-κB consensus sequence that had been labeled with [γ-32P]-ATP (10 mCi/mmol) by T4 polynucleotide kinase. The reaction was allowed to proceed for 30 min at room temperature. For cold competition experiments unlabeled NF-κB oligonucleotide or OCT1 oligonucleotide as a nonspecific competitor (300×) were added to the binding reaction 5 min before the addition of the radiolabeled probe. For antibody supershift assays 2 μl of specific antibodies to NF-κB protein subunits p65, p50, and c-Rel were incubated with nuclear extracts for 1 hour at room temperature prior to the addition of labeled probe. All reaction mixtures were subjected to PAGE on 4.5% gel in 0.5×TBE buffer at 200 V. Gels were dried and directly exposed to the membranes were exposed to a B-1 phosphoimaging screen and visualized by the use of GS-250 Molecular Imaging System (Bio-Rad Laboratories, Richmond, Calif.).

RAGE = target: T1, RAGE (Mus musculus, UniProt Q62151); assay: Co-immunoprecipitation (pull-down) of S100P with RAGE from NIH3T3 lysates; format: binding; conditions: NIH3T3 lysates incubated with S100P and S100P antibody
T1 construct: RAGE was present in the S100P complexes from wild-type NIH3T3 cells incubated with exogenous S100P and S100P antibody; endogenous in cells; host or cells: NIH3T3 cell lysates for RAGE; E. coli TOP10 for the added His-S100P
Procedure: For co-immunoprecipitation experiments, cell lysates were incubated in the absence or presence of S100P (1 μg) at 4° C. overnight. S100P was immunoprecipitated using mouse monoclonal antibody against S100P (Transduction Laboratories, San Diego, Calif.), for 6 hours at 4° C. and IgG immobolized beads (Pierce, Rockford, Ill.). Antibody associated proteins were electrophoresed on 10% polyacrylamide gel and transferred to nitrocellulose membrane. Transferred membrane was blocked by 5% milk solution overnight at 4° C. RAGE was detected as described.

NIH3T3 cells [3] = assay: Cell growth (MTS) of NIH3T3 cells with exogenously applied purified S100P; format: cell-based
Procedure: Cell growth was analyzed by using MTS reagent (Promega, Madison, Wis.) as per manufactures directions. For studies on the effects of S100P expression, vector alone and three different clonal S100P stably transfected cell lines (1000 cells/well) were seeded into 96 well plates and cell growth was studied from 0-120 hrs. For studies on the effects of exogenously applied S100P, purified S100P was added at indicated concentrations for specific times. MTS was added to the wells one hour before taking the photometric reading.
Full length S100P cDNA was cloned into pTrcHis2 vector (Invitrogen, Carlsbad, Calif.) and transformed into one shot TOP10 competent E.coli. The bacterial culture was incubated at 37° C. to an OD600=0.6, then IPTG (1 mM) was added and the bacteria were cultured for another 3 hrs. His-S100P was purified using Probond resin column as described by the manufacturer (Invitrogen, Carlsbad, Calif.). The fraction was further dialyzed against 10 mM Tris, pH 8.0, containing 01% Triton X 100 overnight at 4° C. using a Slide-A-Lyzer 10K (Pierce, Rockford, Ill.). Dialyzed protein was further concentrated by Centricon centrifugal filter device YM10 (Millipore, Bedford, Mass.). The purified S100P protein was confirmed by western blot and ELISA and used for in vitro experiments.

Sequence of RAGE (endogenous, of NIH3T3 cells) (Q62151 23-402 limits assumed): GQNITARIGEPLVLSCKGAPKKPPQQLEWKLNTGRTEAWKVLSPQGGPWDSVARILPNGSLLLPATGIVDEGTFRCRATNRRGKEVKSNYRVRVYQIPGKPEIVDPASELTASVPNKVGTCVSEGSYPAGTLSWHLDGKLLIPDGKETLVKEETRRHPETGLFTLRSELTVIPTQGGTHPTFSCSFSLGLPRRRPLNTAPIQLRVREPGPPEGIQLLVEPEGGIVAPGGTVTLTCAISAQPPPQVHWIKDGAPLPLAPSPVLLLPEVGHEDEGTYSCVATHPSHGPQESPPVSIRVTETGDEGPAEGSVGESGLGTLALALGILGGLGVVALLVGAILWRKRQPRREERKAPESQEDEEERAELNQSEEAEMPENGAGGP
T1 sequence (Q62151 23-402): as the sequence (Q62151 23-402 limits assumed) above

Molecule: O=c1[nH]cc(F)c(=O)[nH]1 [5-FU, 5-fluorouracil, reference compound]
- killing of NIH3T3 cells (NIH3T3 cells [1]; wild-type vs S100P expressing NIH3T3 cells, 5-FU 150 ug/ml (FIG. 5B)): efficiently kill wild-type but not S100P expressing NIH3T3 cells

Molecule: CC(C)c1ccc2oc3nc(N)c(C(=O)O)cc3c(=O)c2c1 [amlexanox]
- interaction with S100 proteins (S100 proteins): interact with S100 proteins

Molecule: synthetic peptide derived from amphoterin (RAGE antagonist peptide)
- inhibition of S100P activation of Erk [2]: 50 nM
- inhibition of S100P activation of Erk, complete [2]: 500 nM

Molecule: purified His-S100P protein (His-tagged fusion protein of full length S100P made in E. coli) (from UniProt P25815 1-95) (ligand)
- NIH3T3 cell proliferation, fold over control [2]: 2 fold
- survival of NIH3T3 cells after 5 FU [2]: 1 nM

Molecule: CN(C)CC/C=C1/c2ccccc2COc2ccc(CC(=O)O)cc21 [olopatadine]
- interaction with S100 proteins (S100 proteins): interact with S100 proteins

B1: S100P: purified S100P generated as a His-tagged fusion protein in bacteria (protein, UniProt P25815 1-95, looked up)
Protein S100-P: MTELETAMGMIIDVFSRYSGSEGSTQTLTKGELKVLMEKELPGFLQSGKDKDAVDKLLKDLDANGDAQVDFSEFIVFVAAITSACHKYFEKAGLK
modifications: His tag
notes: purified S100P generated as a His-tagged fusion protein in bacteria
- concentration at which effects on Erk phosphorylation were noted (Erk 1 & 2; dose-response): 10 pM
- concentration giving maximal effects on Erk phosphorylation (Erk 1 & 2; dose-response): 100 nM
- duration Erk phosphorylation remained significantly elevated (Erk 1 & 2; purified S100P, NIH3T3): at least 2 hours
- time of maximal increase of Erk phosphorylation (Erk 1 & 2; purified S100P, NIH3T3): 30 min
- time to significant Erk 1 & 2 phosphorylation (Erk 1 & 2; purified S100P, NIH3T3): ≤ 10 min
- duration increase in NF-κB DNA binding was maintained (NF-κB; S100P, NIH3T3, EMSA): at least 2 hours
- time to initiation of increase in NF-κB DNA binding (NF-κB; S100P, NIH3T3, EMSA): ≤ 10 min
- concentration at which significant effects on NF-κB activation were noted (NF-κB; concentration dependence): 0.1 nM
- concentration giving maximal effect on NF-κB activation (NF-κB; concentration dependence): 100 nM
- concentration at which protection from the effects of 5 FU was noted (NIH3T3 cells [1]; S100P added to culture medium, NIH3T3): 1 nM
- time after which significant protection from anoikis was noted (NIH3T3 cells [1]; time-course): 36 h
- interaction with RAGE (co-immuno-precipitation) (RAGE): can interact directly with RAGE
- concentration giving maximal effect on cell proliferation (NIH3T3 cells [3]; NIH3T3 cells): 100 nM
- concentration at which effects on cell proliferation were noted (NIH3T3 cells [3]; purified S100P added to NIH3T3 cells, dose-response): 10 pM
- time after which significant increase in cell proliferation was noted (NIH3T3 cells [3]; time-course): 48 h
- maximal effect on cell proliferation (NIH3T3 cells [3]; with 100 nM S100P): ~2 fold over control
